This note sets out measurements from paper PMC11719849, “Allosteric modulation of the Lon protease via ssDNA binding and local charge changes” (The Journal of Biological Chemistry, 2024).

Substitutions are numbered along the chain they refer to. Numbers in names are those of the source.

Substrate in the series: Nc1ncnc2c1ncn2[C@@H]1O[C@H](COP(=O)(O)OP(=O)(O)OP(=O)(O)O)[C@@H](O)[C@H]1O
As to the kind of experiment: coupled NADH fluorescence ATPase assay. The format is biochemical, Caulobacter vibrioides. As to conditions: no ssDNA, FITC-casein present, 0.1 μM Lon6, Mg2+, pH 8.0, 30 °C. From the text: coupled NADH fluorescence ATPase assay on Lon

B1: Lon (Caulobacter vibrioides NA1000) (protein)
chain: MSELRTLPVLPLRDIVVFPHMVVPLFVGRDKSVRALEEVMRGDKQILLVTQKNSADDDPAPGDIFEVGVLATVLQLLKLPDGTVKVLVEGKARAAVVSFTDQESYYEAQIGEVSEDDGAGPEAEALSRAVVEQFENYVKLNKKVPPEALASIPQIAEPGKLADSIAAHLSVKIGDKQNLLEIFDVVKRLEKVFALMEGEISVLQVEKKIRSRVKRQMEKTQREYYLNEQMKAIQRELGDPDDARDELIDLEKRIKKTKLSKEARTKAESELKKLRNMSPMSAESTVVRNYLDWLLSIPWGKAKTKKIDLVESEGILDADHYGLEKVKERILEYLAVQARTNSLKGPILCLVGPPGVGKTSLGKSIAKATGREFVRMSLGGVRDEAEIRGHRRTYIGSMPGKVVQSMKKAKTTNAFVLLDEIDKMGSDYRGDPASALLEVLDPSQNSTFGDHYLEVDYDLSQVMFVTTANSLNMPQPLLDRMEIIRIPGYTEDEKLEIAKRHILPKLAKDHGLKPAEFIVPDKAIRDLIRYYTREAGVRSLERELGALARKTVRDLAREKVASITIDDERLAKYAGVKKYRYGETDEVDQVGIVTGLAWTEFGGDILTIEAVKMPGKGRMQITGNLKDVMKESIAAANSYVRSRALQFGIKPPVFEKTDVHIHVPDGATPKDGPSAGIAMALAMVSVLTGIPIRKDIAMTGEITLRGRVTAIGGLKEKLLAALRSGVKTVLIPQENEKDLADVPQTVKDGLEIIPVSTVDEVLKHALTGPLTPVEWNEAEEPITTSAKKDDGDSDAMLTH
notes: Caulobacter Lon from pBAD33-Lon, purified on hydroxyapatite and MonoQ, no tag mentioned
With B1, the Km (Hill fit n 1.2, brackets 95% CI) is 92[67–135] μM.

B2: Lon (Caulobacter vibrioides NA1000; K301A/K303A/K305A/K306A) (protein)
chain: B1 chain with K301A, K303A, K305A, K306A
notes: as for B1
Turning to B2, where the note is “Lon4A, Hill fit n 1.2, brackets 95% CI”, the Km was 206[134–707] μM.

B3: Lon (Caulobacter vibrioides NA1000; K301E/K303E/K305E/K306E) (protein)
chain: B1 chain with K301E, K303E, K305E, K306E
notes: as for B1
Consider B3, for which the Km (Lon4E, Hill fit n 1.6, brackets 95% CI) was 28[23–28] μM.
